We go through 1 molecule from patent US20150175710A1 (published 2015).

Among the targets are 6B11; 17G10; 12D9.
What all share (experiment): ELISA
A general note: In an ELISA, binding on a coated surface is turned into a signal by an enzyme label.

B1: mouse ENO1 (receptor)
chain: MSILRIHAREIFDSRGNPTVEVDLYTAKGLFRAAVPSGASTGIYEALELRDNDKTRFMGKGVSQAVEHINKTIAPALVSKKVNVVEQEKIDKLMIEMDGTENKSKFGANAILGVSLAVCKAGAVEKGVPLYRHIADLAGNPEVILPVPAFNVINGGSHAGNKLAMQEFMILPVGASSFREAMRIGAEVYHNLKNVIKEKYGKDATNVGDEGGFAPNILENKEALELLKTAIAKAGYTDQVVIGMDVAASEFYRSGKYDLDFKSPDDPSRYITPDQLADLYKSFVQNYPVVSIEDPFDQDDWGAWQKFTASAGIQVVGDDLTVTNPKRIAKAASEKSCNCLLLKVNQIGSVTESLQACKLAQSNGWGVMVSHRSGETEDTFIADLVVGLCTGQIKTGAPCRSERLAKYNQILRIEEELGSKAKFAGRSFRNPLAK
The Kd is the equilibrium constant for the complex coming apart. A higher Kd goes with a looser complex. Consider B1, for which the Kd with 6B11 was 3.04 nM; with 17G10, 33.9 nM; with 12D9, 0.39 nM.
